PMC7532178, “Interaction of protocadherin-15 with the scaffold protein whirlin supports its anchoring of hair-bundle lateral links in cochlear hair cells” (Scientific Reports, 2020)
No end group written: not given here. *: point of attachment. Biotin = O=C1N[C@H]2[C@H](CS[C@H]2CCCCC(=O)*)N1; TTDS = trioxatridecan-succinamic acid spacer

T1: harmonin-NTD-PDZ1 (aa 1-192) (UniProt Q9ES64 1-192)
T1 construct: extra 7 aa at the N-terminus of all recombinant proteins of the study; harmonin, residues 1-192 (NTD and PDZ1), numbers on GenBank AF228925.1; also called NTD-PDZ1-Hp domain of harmonin; source: E. coli BL21 (DE3) codonPlus-RIPL, purified (Glutathione Sepharose 4B, GST removed by TEV proteinase, SEC)
T1 sequence: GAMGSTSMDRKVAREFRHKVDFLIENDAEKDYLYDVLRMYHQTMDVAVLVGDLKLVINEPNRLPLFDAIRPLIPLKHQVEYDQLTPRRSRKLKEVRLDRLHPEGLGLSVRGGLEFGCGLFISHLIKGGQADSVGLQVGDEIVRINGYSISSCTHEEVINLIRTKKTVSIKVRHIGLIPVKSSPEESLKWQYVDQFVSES

T2: harmonin-PDZ2 (aa residues 197-308) (UniProt Q9ES64 197-308)
T2 construct: extra 7 aa at the N-terminus of all recombinant proteins of the study; harmonin, residues 197-308 (PDZ2), numbers on GenBank AF228925.1; also called PDZ2 domain of harmonin; source: E. coli BL21 (DE3) codonPlus-RIPL, purified (Glutathione Sepharose 4B, GST removed by TEV proteinase, SEC)
T2 sequence: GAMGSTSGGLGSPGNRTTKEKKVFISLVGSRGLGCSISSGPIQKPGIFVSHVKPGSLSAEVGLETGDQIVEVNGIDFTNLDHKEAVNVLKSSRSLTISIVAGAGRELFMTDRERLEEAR

T3: whirlin-NTR-PDZ1-Hp1 (aa residues 2-265) (mouse, UniProt Q80VW5-1 2-265)
T3 construct: extra 7 aa at the N-terminus of all recombinant proteins of the study; whirlin (long isoform, L-whirlin), residues 2-265: NTR (with HHD1), PDZ1 and hairpin Hp1; The methods call the 2-265 construct whirlin-NTR-PDZ1; also called NTR-PDZ1-Hp1 whirlin fragment; Nter-PDZ1-Hp1; source: E. coli BL21 (DE3) codonPlus-RIPL, purified (Glutathione Sepharose 4B, GST removed by TEV proteinase, SEC)
T3 sequence: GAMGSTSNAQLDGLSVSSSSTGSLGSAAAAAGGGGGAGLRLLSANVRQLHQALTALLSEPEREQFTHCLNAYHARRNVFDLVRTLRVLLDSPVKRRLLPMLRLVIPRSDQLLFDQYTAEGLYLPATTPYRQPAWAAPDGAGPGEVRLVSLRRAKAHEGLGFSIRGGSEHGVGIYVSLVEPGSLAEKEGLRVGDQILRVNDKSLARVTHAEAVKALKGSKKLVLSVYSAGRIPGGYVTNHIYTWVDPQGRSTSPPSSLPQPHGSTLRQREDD


Key:
Conditions in all cases: both partners purified
[1] = target: T1, harmonin-NTD-PDZ1 (aa 1-192); test: SPR; harmonin fragments or full-length harmonin-a1 with C-terminal peptides; Fig. S10 and data not shown
[2] = target: T2, harmonin-PDZ2 (aa residues 197-308); test: as above
[3] = target: T3, whirlin-NTR-PDZ1-Hp1 (aa residues 2-265); test: SPR; ProteOn XPR 36; N-terminally biotinylated peptides captured on a Neutravidin NLC sensor chip, whirlin fragments flowed as analytes at 20 μL/min for 2 min; 250 mM NaCl, 50 mM Tris pH 7.5, 0.5 mM TCEP; steady-state fit Req = (Rmax*C)/(Kd+C); mean of three experiments; Figure 4B shows the responses at 10 μM

Kd [1] | Kd [2] | Kd [3] | Binder
> 200 µM | > 200 µM | 8.5 µM | {Biotin-TTDS}-GANSEQYNTAL (C-terminal 11 aa of protocadherin-15 isoform CD2, including the PBM; source: synthetic peptide (Eurogentec); not shown: biotin, N-terminal, kept) [PCDH15-CD2 C-terminal peptide (biotin-TTDS-GANSEQYNTAL)]
> 200 µM | > 200 µM | 4.2 µM | {Biotin-TTDS}-MGPWNSLHIPMTKL (C-terminal 14 aa of protocadherin-15 isoform CD3, including the PBM; source: synthetic peptide (Eurogentec); not shown: biotin, N-terminal, kept) [PCDH15-CD3 C-terminal peptide (biotin-TTDS-MGPWNSLHIPMTKL)]
> 200 µM | > 200 µM | 8.8 µM | {Biotin-TTDS}-GIDVQPHSQSTSL (C-terminal 13 aa of protocadherin-15 isoform CD1, including the PBM; source: synthetic peptide (Eurogentec); not shown: biotin, N-terminal, kept) [PCDH15-CD1 C-terminal peptide (biotin-TTDS-GIDVQPHSQSTSL)]
